For assay [1], the target named is FLAG-tagged LEDGF/p75 WT (UniProt O75475).
Assay [2] deals with FLAG-tagged LEDGF/p75 ΔPWWP.
Assay [3] has as its target LEDGF/p75 WT (Lens epithelium-derived growth factor/p75) (UniProt O75475).
For assay [4], the target named is LEDGF/p75 ΔPWWP (stably expressed in HEK293T-derived cells).

The source of these data is paper PMC3098157.

Some results are limits rather than exact numbers.

For the substance “Myc-eGFP-tagged HIV-1 integrase WT (enzyme)”, the salt extraction assay, transient coexpression: NaCl needed to extract LEDGF/p75 WT from chromatin with integrase WT (250 mM without integrase) in assay [1] was over 300 mM. The salt extraction assay, transient coexpression: NaCl needed for complete extraction of LEDGF/p75 ΔPWWP from chromatin with integrase WT (150 mM without integrase) in assay [2] was over 200 mM.
As to Myc-tagged HIV-1 integrase (enzyme), the salt extraction assay: percent of LEDGF/p75 WT extracted from chromatin at NaCl above 200 mM in cells co-expressing HIV-1 integrase (around 70% without integrase) in assay [3] is under 1%. Further, the salt extraction assay: percent of LEDGF/p75 ΔPWWP extracted from chromatin at 100 mM and 150 mM NaCl in cells co-expressing HIV-1 integrase (30% and 70% without integrase) in assay [4] is under 2%.
